Test results: patent US20180022779A1 (UNIVERSITY OF VIRGINIA PATENT FOUNDATION, published 2018)

Target: T1, mouse eNOS (endogenous, thoracodorsal arteries) (mouse, UniProt P70313 2-1202)
T1 sequence (looked up): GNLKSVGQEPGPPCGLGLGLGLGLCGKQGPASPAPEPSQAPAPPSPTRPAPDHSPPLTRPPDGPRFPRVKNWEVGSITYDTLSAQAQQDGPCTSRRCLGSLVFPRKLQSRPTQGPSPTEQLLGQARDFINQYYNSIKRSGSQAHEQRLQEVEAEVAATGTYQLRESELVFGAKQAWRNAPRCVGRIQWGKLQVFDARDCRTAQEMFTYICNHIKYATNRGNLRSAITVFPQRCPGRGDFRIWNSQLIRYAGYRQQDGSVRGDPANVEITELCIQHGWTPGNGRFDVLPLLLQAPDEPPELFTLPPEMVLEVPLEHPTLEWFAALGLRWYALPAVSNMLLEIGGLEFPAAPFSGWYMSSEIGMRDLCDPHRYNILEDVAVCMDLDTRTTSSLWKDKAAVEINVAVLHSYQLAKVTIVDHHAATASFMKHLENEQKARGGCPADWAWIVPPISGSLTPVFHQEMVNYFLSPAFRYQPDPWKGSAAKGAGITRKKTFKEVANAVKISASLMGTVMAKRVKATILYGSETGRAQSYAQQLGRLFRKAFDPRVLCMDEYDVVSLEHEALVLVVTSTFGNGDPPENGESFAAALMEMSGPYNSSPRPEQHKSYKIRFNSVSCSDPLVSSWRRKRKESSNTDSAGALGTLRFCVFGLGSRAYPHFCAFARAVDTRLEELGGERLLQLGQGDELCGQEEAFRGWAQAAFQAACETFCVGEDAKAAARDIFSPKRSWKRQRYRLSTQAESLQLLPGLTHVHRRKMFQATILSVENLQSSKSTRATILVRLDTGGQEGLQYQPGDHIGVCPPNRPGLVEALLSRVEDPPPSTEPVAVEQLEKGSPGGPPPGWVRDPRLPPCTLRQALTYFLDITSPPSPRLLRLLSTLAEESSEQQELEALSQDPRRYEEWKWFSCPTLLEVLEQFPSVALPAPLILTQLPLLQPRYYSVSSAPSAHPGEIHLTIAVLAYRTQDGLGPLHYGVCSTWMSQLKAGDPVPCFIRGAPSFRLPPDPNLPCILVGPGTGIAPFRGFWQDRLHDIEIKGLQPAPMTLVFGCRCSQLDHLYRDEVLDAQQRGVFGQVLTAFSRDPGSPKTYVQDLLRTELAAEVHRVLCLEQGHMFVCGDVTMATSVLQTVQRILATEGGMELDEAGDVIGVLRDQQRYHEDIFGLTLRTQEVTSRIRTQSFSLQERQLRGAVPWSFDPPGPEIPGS
Test: cell-based or functional assay

YGRKKRRQRRRLSFPTTKTYF [Hb α X peptide (HIV-tat tag linked to LSFPTTKTYF)]
EC50 of phenylephrine ([PE] producing half of the maximum effect), thoracodorsal arteries treated with Hb α X: 6.8 µM
